The results in this text go back to patent US20170044239A1.

Experiment [1] deals with hemagglutinin on BS/07 H1N1 virus (A/Brisbane/59/2007) (Influenza A virus A/Brisbane/59/2007 (H1N1)). Briefly: cell-based or functional assay.
The target of experiment [2] is BS/07 H1 HA (recombinant ectodomain of hemagglutinin from A/Brisbane/59/2007, H1N1) (Influenza A virus A/Brisbane/59/2007 (H1N1)).

Regarding F10 IgG (antibody), in experiment [1], the IC50, neutralization of BS/07 H1N1 infection worked out at 1.85 µg/mL.
Turning to F10 scFv (phage-free soluble, E-tag), the normalized binding affinity in experiment [2] was 1. In addition, in experiment [1], the normalized neutralizing potency against BS/07 H1N1 was determined as 1.
